Results reported in publication PMC4451881, “Functional display of heterotetrameric human protein kinase CK2 on Escherichia coli: a novel tool for drug discovery” (Microbial Cell Factories, 2015).

Molecular target: T1, CK2α-AT, autotransporter fusion protein with the human protein kinase CK2 α-subunit as passenger domain (human, UniProt P68400 2-391)
T1 sequence (looked up): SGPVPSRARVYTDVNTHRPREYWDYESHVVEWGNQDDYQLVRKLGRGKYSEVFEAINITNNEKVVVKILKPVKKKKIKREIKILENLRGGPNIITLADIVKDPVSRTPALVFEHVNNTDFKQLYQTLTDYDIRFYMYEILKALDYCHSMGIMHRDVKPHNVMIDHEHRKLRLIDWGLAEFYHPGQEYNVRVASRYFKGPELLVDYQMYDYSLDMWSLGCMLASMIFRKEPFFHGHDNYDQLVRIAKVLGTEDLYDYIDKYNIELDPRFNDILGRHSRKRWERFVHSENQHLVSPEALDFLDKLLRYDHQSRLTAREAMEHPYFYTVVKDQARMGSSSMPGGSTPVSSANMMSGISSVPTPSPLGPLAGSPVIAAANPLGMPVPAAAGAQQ
Test: cell-based or functional assay

B1: CK2β-AT, autotransporter fusion protein with the human protein kinase CK2 β-subunit as passenger domain (natural protein)
chain: not shown
  radiometric whole-cell kinase activity normalised to the expression level of CK2α-AT, cells co-displaying both subunits against cells displaying CK2α alone: > 5 fold
